From publication PMC13013135, “[^99mTc]Tc-PSMA-HSG for PSMA-targeted Hybrid Surgical Guidance: a new addition to the PSMA-I&S/I&T family” (European Journal of Nuclear Medicine and Molecular Imaging, 2025)

What was measured:
mouse serum = test: Plasma protein binding (B50), ultrafiltration, mouse serum; format: in vitro ADME
Procedure: (§1) A detailed experimental procedure is provided in the Supplementary Material. […] Briefly, protein solutions (maximum concentration: […] Samples were briefly vortexed and incubated for 30 min at 37 °C. […] The filter units were then removed from the centrifugal tubes and washed twice with 300 µL PBS to recover the protein fraction. The activity in the filtrate, filter and protein fraction were then quantified using a γ-counter. […] The percentages of radioligand bound to the respective proteins are represented as means ± standard deviation (SD) of three independent experiments.

in vivo = conditions: male, NSG, mouse, iv, 1 nmol/mouse, total radioactivity, biodistribution
Procedure: As documented in the literature, engineered PC3-Pip cells express particularly high PSMA levels, which are not representative for the situation in human tumors (mean number of PSMA binding sites = 4.9 × 10^6 sites/cell for PC3-Pip cells vs. 5.9 × 10^5 sites/cell for LNCaP [60]). Thus, to correlate quantitative data with in vivo/ex vivo fluorescence signals, a biodistribution study was conducted under the same conditions as the fluorescence imaging. NSG mice bearing PC3-Pip (PSMA+) and PC3 WT (PSMA-) xenografts on opposite shoulders received [^99mTc]Tc-PSMA-HSG (1 nmol), and biodistribution was assessed at 2 h p.i. (Supplementary Table 1). The overall distribution matched previous data from LNCaP-bearing mice (Table 3), but tumor uptake was over twice as high (26.6 ± 5.0%iD/g). Low uptake in PC3 WT tumors (1.6 ± 0.3%iD/g) confirmed PSMA-specificity.
PC-3 PIP xenografts were established by subcutaneous injection of 5 × 10^6 PC3-PIP cells/mouse using 8–12-week-old male NSG mice (in-house breeding, Dpt. of Oncology, University of Lausanne) as previously described. Tumors reached a size of 4-8 mm in diameter after 5-6 days and were then immediately used for the fluorescence imaging studies.

[1] = biological target: human serum albumin (HSA) (Homo sapiens, UniProt P02768); test: Plasma protein binding (B50), ultrafiltration, HSA; format: in vitro ADME
Procedure: as §1

Chain of human serum albumin (HSA) (P02768 25-609): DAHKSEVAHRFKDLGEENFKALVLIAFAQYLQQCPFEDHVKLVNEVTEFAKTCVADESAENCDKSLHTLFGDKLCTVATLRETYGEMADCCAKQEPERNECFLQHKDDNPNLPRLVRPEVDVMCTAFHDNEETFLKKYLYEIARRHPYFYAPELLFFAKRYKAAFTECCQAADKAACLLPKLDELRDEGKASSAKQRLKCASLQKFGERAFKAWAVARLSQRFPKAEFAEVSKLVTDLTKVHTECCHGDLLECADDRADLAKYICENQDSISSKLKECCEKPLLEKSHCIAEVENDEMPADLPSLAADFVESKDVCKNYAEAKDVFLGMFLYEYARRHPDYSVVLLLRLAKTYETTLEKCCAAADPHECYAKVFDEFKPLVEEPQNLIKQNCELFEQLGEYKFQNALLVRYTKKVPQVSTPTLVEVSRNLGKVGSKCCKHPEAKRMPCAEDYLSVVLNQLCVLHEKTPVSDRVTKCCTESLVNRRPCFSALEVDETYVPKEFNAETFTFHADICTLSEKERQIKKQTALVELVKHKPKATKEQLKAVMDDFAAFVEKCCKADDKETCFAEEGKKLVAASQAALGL

C[N+]1=C(/C=C/C=C/C=C2/N(CCCCCC(=O)NCCCC[C@@H](NC(=O)[C@@H](CO)NC(=O)[C@@H](CO)NC(=O)[C@@H](CO)NC(=O)CS)C(=O)N[C@H](Cc3ccc(O)cc3)C(=O)N[C@H](Cc3ccc4ccccc4c3)C(=O)N[C@H](CCCCNC(=O)CCCCCCC(=O)NCCCC[C@H](NC(=O)N[C@@H](CCC(=O)O)C(=O)O)C(=O)O)C(=O)O)c3ccc(S(=O)(=O)[O-])cc3C2(C)C)C(C)(C)c2cc(S(=O)(=O)O)ccc21 [[^99mTc]Tc-PSMA-HSG, metal not drawn]
B50 MS (mouse serum): 142 ± 22 | tissue uptake at 2 h (in vivo; PC3-Pip tumor): 26.6 ± 5 %ID/g | tissue uptake at 2 h (in vivo; PC3 WT tumor): 1.6 ± 0.3 %ID/g | tissue uptake at 2 h (in vivo; blood): 2.8 ± 0.4 %ID/g | tissue uptake at 2 h (in vivo; heart): 1.5 ± 0.3 %ID/g | tissue uptake at 2 h (in vivo; intestines): 0.9 ± 0.1 %ID/g | tissue uptake at 2 h (in vivo; kidneys): 100 ± 8.2 %ID/g | tissue uptake at 2 h (in vivo; liver): 2.9 ± 0.5 %ID/g | tissue uptake at 2 h (in vivo; lung): 4.1 ± 1.2 %ID/g | tissue uptake at 2 h (in vivo; muscle): 0.6 ± 0.1 %ID/g | tissue uptake at 2 h (in vivo; pancreas): 0.9 ± 0.2 %ID/g | tissue uptake at 2 h (in vivo; salivary glands): 2.2 ± 0.4 %ID/g | tissue uptake at 2 h (in vivo; spleen): 8.2 ± 0.7 %ID/g | tissue uptake at 2 h (in vivo; stomach): 1.5 ± 0.1 %ID/g | B50 HSA [1]: 273 ± 36
